Test results as given in paper PMC5499551.
Where two headings read alike, the source gives them in different places.

B1: Mrpl45 (dsDNA)
DNA 1: GGGTTTTTTTCACCGATTGTAAATAAGGTGTAACAATGTGTTAAGGAACCAGGA
DNA 2: TCCTGGTTCCTTAACACATTGTTACACCTTATTTACAATCGGTGAAAAAAACCC
B2: Lmo4 (dsDNA)
DNA 1: GGCATCTCCCATTATTGTTCCAAATCTCATTTCATTTTGAA
DNA 2: TTCAAAATGAAATGAGATTTGGAACAATAATGGGAGATGCC
B3: Lats2 (dsDNA)
DNA 1: GGCCGAGCGGGACATTCGCTACATTGTTGGCATTCCACGGGCG
DNA 2: CGCCCGTGGAATGCCAACAATGTAGCGAATGTCCCGCTCGGCC

Legend:
Experiment in all cases: EMSA
GATA4 = GATA4 (mouse, UniProt Q08369 1-441)
DMRT1 = DMRT1 (mouse, UniProt Q9QZ59 1-374)
SOX9 [1] = target: T1, SOX9 (UniProt P48436 1-509)
SOX9 [2] = target: T1, SOX9; remark: listed apart in the source

Chain of GATA4 (Q08369 whole entry): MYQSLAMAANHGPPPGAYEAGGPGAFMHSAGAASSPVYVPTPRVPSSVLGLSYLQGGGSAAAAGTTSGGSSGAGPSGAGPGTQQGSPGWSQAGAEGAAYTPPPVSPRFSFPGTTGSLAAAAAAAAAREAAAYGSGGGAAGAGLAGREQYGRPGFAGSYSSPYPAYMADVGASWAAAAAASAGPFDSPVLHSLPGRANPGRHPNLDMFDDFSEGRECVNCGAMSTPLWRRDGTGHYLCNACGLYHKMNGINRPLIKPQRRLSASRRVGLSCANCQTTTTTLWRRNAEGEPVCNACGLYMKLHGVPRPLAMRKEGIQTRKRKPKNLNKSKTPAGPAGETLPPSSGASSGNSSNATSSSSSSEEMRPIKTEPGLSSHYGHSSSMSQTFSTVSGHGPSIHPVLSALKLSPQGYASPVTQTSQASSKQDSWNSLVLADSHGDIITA
Chain of DMRT1 (Q9QZ59 whole entry): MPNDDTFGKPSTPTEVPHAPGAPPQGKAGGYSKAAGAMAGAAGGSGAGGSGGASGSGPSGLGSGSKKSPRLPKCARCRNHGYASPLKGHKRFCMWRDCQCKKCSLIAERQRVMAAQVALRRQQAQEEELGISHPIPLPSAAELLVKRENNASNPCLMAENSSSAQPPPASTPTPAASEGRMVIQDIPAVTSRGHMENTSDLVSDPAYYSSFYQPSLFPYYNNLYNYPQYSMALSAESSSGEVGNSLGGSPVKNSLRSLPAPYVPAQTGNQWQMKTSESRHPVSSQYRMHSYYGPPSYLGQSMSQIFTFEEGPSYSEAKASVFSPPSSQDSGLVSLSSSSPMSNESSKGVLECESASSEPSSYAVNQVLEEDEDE
T1 sequence (P48436 whole entry): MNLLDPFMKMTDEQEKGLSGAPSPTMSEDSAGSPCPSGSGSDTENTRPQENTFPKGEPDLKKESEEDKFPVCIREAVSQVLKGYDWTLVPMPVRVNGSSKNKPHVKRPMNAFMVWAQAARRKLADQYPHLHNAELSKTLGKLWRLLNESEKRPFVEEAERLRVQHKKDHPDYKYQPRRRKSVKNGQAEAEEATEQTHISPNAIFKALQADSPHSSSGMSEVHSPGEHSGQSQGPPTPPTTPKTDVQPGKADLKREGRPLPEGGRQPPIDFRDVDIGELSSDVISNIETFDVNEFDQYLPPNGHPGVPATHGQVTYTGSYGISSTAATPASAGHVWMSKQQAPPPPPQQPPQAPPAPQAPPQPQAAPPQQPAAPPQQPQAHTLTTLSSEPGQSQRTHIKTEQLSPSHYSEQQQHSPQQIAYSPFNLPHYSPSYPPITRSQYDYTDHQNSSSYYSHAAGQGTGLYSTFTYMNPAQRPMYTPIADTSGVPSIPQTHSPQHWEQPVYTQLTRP

Binder | binding result (GATA4) | binding result (DMRT1) | binding result (SOX9 [1]) | binding result (SOX9 [2])
B1 | binds | binds | binds | –
B2 | binds | no binding | binds | –
B3 | no binding | binds | – | binds
